Measured values published in patent US7291458B2, “Leptin-mediated gene-induction” (Vlaams Interuniversitair Instituut Voor Biotechnologie VZW, priority 1998, dated 2007).

Tests used:
PC12-LR8 cells = test: Northern blot analysis of gene induction in non-differentiated PC12-LR8 cells; format: cell-based, rat; conditions: cycloheximide from 30 minutes before induction for 8.5 hours; 24 hours post induction
Protocol: PC12-LR8 cells were treated with leptin (L), forskolin (F), or a combination of both (F/L) for the indicated length of time. Hybridization with the mouse b-actin probe was used as a control. NI stands for non-induced control cells. Sizes of transcripts are shown on the right. Exposure times to Biomax MS films were 5.5 days for LIP-I and LIP-II, and 1 day for the corresponding b-actin blot, all at −80° C.
FIG. 6A. Induction patterns of Reg I, HIP-I and peripherin after a 12 hours stimulation with forskolin (F), leptin (L), forskolin plus leptin (F/L), hyper-IL-6 (H) or forskolin plus hyper-IL-6 (F/H). Untreated cells were analyzed as a control (NI). Exposure times to BioMax MS films for Reg I, HIP-I and b-actin were 4 days, 5 days and 3 hours, respectively; and in a separate experiment for peripherin and b-actin, 16 hours and 2 days.
FIG. 6B Induction patterns of PAP I, PAP III, MT-II, Fnk, MRF-1, SOCS-3 and STAT-3 after stimulation with leptin (L) or hyper-IL-6 (H), compared to non-treated control cells (NI). In all cases stimulation was for 12 hours, with the exception of PAP III where stimulation was for 24 hours. b-actin hybridization patterns are shown as control. Exposure times to BioMax MS films at −80° C. were 16 hours for PAP I and 1 hour for b-actin; 4 days for PAP III and 1 hour for b-actin; 3 days for MT-II and Fnk, and2 days for b-actin; 3 days for MRF-1, 2.5 days for SOCS-3 and2 days for b-actin; and 16 hours for STAT-3 and 3 hours for b-actin.
FIG. 8A. Northern blot analysis of the immediate early response genes. PC12-LR8 cells were left untreated (NI: non induced), or were treated with forskolin (F), leptin (L) or a combination of both (F/L) for the indicated time points. Exposure times to BioMax MS films for the different transcripts were Fnk: 6 days, MT-II: 5 days, MRF-1: 6 days, SOCS-3: 14 hours, STAT-3: 14 hours, b-actin: 5 hours.
FIG. 8B. Immediate early response gene-set: early kinetics. PC12-LR8 cells were treated with leptin alone (L) or with a combination of leptin and forskolin (F/L) for the indicated length of time. Exposure time to BioMax MS films were: Fnk: 3 days, MT-II: 3 days, MRF-1: 3 days, SOCS-3: 2.5 days, STAT-3: 2.5 days, b-actin: 1 hour.
FIG. 8C. Northern blot analysis of the late target genes. PC12-LR8 cells were left untreated (NI), or were treated with forskolin (F), leptin (L) or a combination of both (F/L) for the indicated length of time. Exposure times to BioMax MS films were: Ann VIII: 6 days, PAP I: 14 hours, Squalene Epoxidase: 5 days, UGT: 5 days, b-actin: 14 hours.
PC12 cells were cultured in RPMI 1640 medium with glutamax-I (GibcoBRL) containing 10% heat-inactivated foetal calf serum (iFCS) and gentamycin (50 μg/ml). The cells were treated with medium alone or supplemented with 100 ng/ml of mouse leptin (R&D Systems), with forskolin (Sigma) at a concentration of 10 μM or with a combination both, unless otherwise indicated.
Total RNA was prepared from PC12 cells using RNeasy™ method (Qiagen). RNA (10 μg) was separated on a 1.5% agarose,6% formaldehyde gel, transferred to a nylon membrane (Zeta-Probe GT Genomic, Bio-Rad), and cross-linked using UV radiation. The filters were hybridized for one hour at 68° C. in ExpressHyb™ solution (Clontech) with [^32P]dCTP-labeled DNA-probes and washed 3 times with 2×SSC, 0.05% SDS at room temperature and twice in 0.1×SSC, 0.1% SDS at 50° C. Autoradiographs were obtained by exposing the blots to BioMax MS film (Kodak) with intensifying screens at −70° C. All Northern blots were normalized by hybridization using a b-actin probe.

ob/ob mice = test: Gene expression in leptin treated ob/ob mice (Northern blot); format: in vivo; conditions: 100 μg/mouse intraperitoneally, 5 hours after treatment
Protocol: Leptin deficient ob/ob mice were left untreated (−) or were treated with leptin (100 μg; +) intraperitoneally. Mice were killed five hours after treatment. Northern blot analysis of MT-II and Fnk in liver and PAP I expression in jejunum is shown. Hybridization with the mouse b-actin probe was used as a control and is shown below. Exposure times to BioMax MS films were 4 hours, 3 days, 4 hours and 8 hours for MT-II, Fnk, PAP I and b-actin respectively.
In order to assess the value of our in vitro model system for obesity, we investigated the regulation by leptin of a subset of the identified genes in vivo. Recombinant human leptin (R&D Systems) was administered intraperitoneally to leptin deficient ob/ob mice in a single dose of 100 μg leptin /mouse. Mice were killed by cervical dislocation 5 hours after treatment and total RNA was isolated from liver and jejunum. Northern blot analysis was performed using respectively MT-II, Fnk and PAP I as probe (FIG. 9).
Specific pathogen-free female C57BL/6J-Lep^ob mice, 9 weeks old at the beginning of the experiment further referred to as ob/ob were obtained from The Jackson Laboratory (Maine, USA). […] The endotoxin content of the antibody was 0.07 ng/mg protein, as assessed by a chromogenic Limulus amebocyte lysate assay (Coatest, Chromogenix, Stockholm, Sweden). […]

[1] = system: rat Pancreatitis Associated Protein I promoter; test: pGL3-rPAPluc reporter in PC12-LR8 cells; format: cell-based; conditions: rPAP I reporter
Protocol: (§1) FIGS. 1C and 1D. Analysis of b-NGF and forskolin co-stimulation on leptin-induced POMC luciferase (C) or rPAP luciferase activity (D). PC12-LR8 cells were transiently transfected with pGL3-hPOMCluc or pGL3-rPAPluc reporter and treated after two days with forskolin (F: 10 μM), leptin (L: 100 ng/ml), and rat b-NGF (N: 1 ng/ml) as indicated or were left untreated (NI). 24 hours after treatment, cells were lysed and assayed for luciferase activity.
(§2) Leptin responsiveness in PC12 cells was further investigated using a clone stably expressing the long isoform of the mouse leptin receptor (PC12-LR8, see below). After transfection of PC12-LR8 with a reporter construct based on the human POMC (proopiomelanocortin) promoter (pGL3-POMCluc) (FIG. 1 portion C), or a reporter construct based on the rat Pancreatitis Associated Protein I promoter (See below) (FIG. 1 portion D), leptin induced luciferase activity was measured. […]
(§3) Luciferase activity was measured in transfected cells by chemiluminescence. […] 70 μl of luciferase substrate buffer (20 mM Tricine; 1.07 mM (MgCO3)4Mg(OH)25H2O; 2.67 mM MgSO4; 0.1 mM EDTA; 33.3 mM DTT; 270 μM Coenzyme A (lithium salt); 470 μM Luciferin (Duchefa); 530 μM ATP, final pH 7.8) was added to 100 μl of cell lysate and measured for 5 seconds by TopCount.NXT Chemiluminescence Counter (Packard).

[2] = system: human POMC (proopiomelanocortin) promoter; test: pGL3-POMCluc reporter in PC12-LR8 cells; format: cell-based, rat
Protocol: as §1, §2, §3

C[C@@H]1C[C@@H]([C@H](O)CC2CC(=O)NC(=O)C2)C(=O)[C@@H](C)C1 [cycloheximide, reference compound]
rPAP I and Annexin VIII mRNA expression (PC12-LR8 cells): strongly reduced expression

Recombinant human leptin: Recombinant human leptin (R&D Systems) administered intraperitoneally to mice
MT-II and Fnk mRNA expression in liver (ob/ob mice): clear induction
expression of PAP I in jejunum (ob/ob mice): downregulated

B1: b-NGF: recombinant rat b-nerve growth factor (protein, UniProt P25427 122-241, looked up)
Beta-nerve growth factor: SSTHPVFHMGEFSVCDSVSVWVGDKTTATDIKGKEVTVLGEVNINNSVFKQYFFETKCRAPNPVESGCRGIDSKHWNSYCTTTHTFVKALTTDDKQAAWRFIRIDTACVCVLSRKAARRG
co-stimulation of leptin induced luciferase activity ([1]; b-NGF 1 ng/ml): mimicked
combined b-NGF and forskolin effects on leptin induced luciferase activity [1]: additive
combined b-NGF and forskolin effects on leptin induced luciferase activity [2]: additive
co-stimulation of leptin induced luciferase activity ([2]; b-NGF 1 ng/ml): mimicked
